In US12428446B2, “Peptide compound or pharmaceutically acceptable salt thereof” (Eyebio Korea, priority 2019, dated 2025):
*1 amine or outer side, *2 acyl side, *3 side chain or, on linkers, in order; H or OH if unused. Primed or numbered codes have the meaning given here. Where no end group is shown, it is not given here. [ ]: non-standard residue; d: D form. The star is where a group is joined. Pro(trans-4-NH2) = O=C([C@@H]1C[C@@H](N[*:3])CN1[*:1])[*:2]; Pro(4,4-Me2) = CC1(C)CN[C@H](C(=O)O)C1; Asu′ = aspartimide (aminosuccinimide); Hyp = O=C(O)[C@@H]1C[C@@H](O)CN1; dHyp = O=C(O)[C@H]1C[C@H](O)CN1; Aib = CC(C)(N)C(=O)O; OiPr = CC(C)O*

Columns and labels:
[1] = Evaluation of dissolution stability (content change on storage in dissolved state); type: physicochemical; conditions: 1 mg/1 ml dissolved state, 40° C. and RH 75%
[2] = test system: IL-1β secretion, Raw 264.7 cells; test: Anti-inflammatory efficacy: IL-1β ELISA in LPS-stimulated Raw 264.7 macrophages; type: cell-based, mouse; conditions: for IL-1β level increased by LPS: 1 h pretreatment, LPS 1 μg/ml 24 h
Procedure: An anti-inflammatory efficacy was evaluated for representative examples of the above examples. Specifically, in order to confirm whether Examples 10, 32, 41, 55, 59 and 91, which are representative examples of 5 amino acid residues, Examples 11 and 30, which are representative examples of 6 amino acid residues, Example 86, which is a representative example of 7 amino acid residues, and Examples 103 and 104, which are representative examples of 8 amino acid residues, have an anti-inflammatory effect, a change in the secretion amount of inflammatory cytokines was confirmed by enzyme-linked immunosorbent assay (ELISA) using Raw 264.7 cells, which are macrophage (monocyte) cell lines.
Specifically, the Examples were diluted in Raw264.7 cells (Korean Cell Line Bank, 40071) at a concentration of 10 nM, 100 nM, 1 μM, and 10 μM, respectively, and pretreated for 1 hour, and then LPS (Sigma, L6529) at a concentration of 1 μg/ml was added to induce an inflammatory response. After 24 hours of induction, the cell culture supernatant was collected and analyzed. Enzyme-linked immunosorbent assay was performed using Mouse IL-6 Quantikine ELISA Kit (R&D systems, M6000B), TNF-alpha Quantikine ELISA Kit (R&D systems, MTA00B), Mouse IL-1 beta/IL-1F2 Quantikine ELISA Kit (R&D systems, MLB00C) in accordance with the manufacturer's manual.

Substance | Day 1 content (%) [1] [%] | Day 3 content (%) [1] [%] | Day 7 content (%) [1] [%] | Initial content (%) [1] [%] | IL-1β level increased by LPS ([2]; 10 nM peptide) | IL-1β level increased by LPS ([2]; 1 μM peptide) | IL-1β level increased by LPS ([2]; 10 μM peptide) | anti-inflammatory effect by regulating the secretion of IL-1β ([2]; summary, concentration not given)
Hyp-Gly-Gln-Glu-Leu-Leu-Ala ([Hyp]GQELLA) [Example 86] | 97.40 | 97.77 | 97.55 | 98.16 | significantly reduced | significantly reduced | significantly reduced | significant anti-inflammatory effect
Hyp-Gly-Gln-Asp-Val ([Hyp]GQDV) [Example 21] | 79.91 | 77.37 | 69.10 | 84.05 |  |  |  | 
Hyp-Gly-Gln-D Asp-Leu ([Hyp]GQ[dD]L) [Example 125] | 97.15 | 95.07 | 88.48 | 98.28 |  |  |  | 
Hyp-Gly-Gln-Asp-Gly-Leu-D Ala ([Hyp]GQDGL[dA]) [Example 66] | 89.15 | 79.64 | 60.49 | 96.42 |  |  |  | 
PGQDGL [Example 77] | 86.66 | 80.88 | 69.44 | 92.01 |  |  |  | 
trans-4NH2-Pro-Gly-Gln-Asp-Gly ([Pro(trans-4-NH2)]GQDG) [Example 42] | 65.09 | 52.07 | 37.87 | 71.84 |  |  |  | 
Hyp-Gly-D Gln-Asp-Gly ([Hyp]G[dQ]DG) [Example 58] | 98.01 | 97.85 | 97.56 | 98.03 |  |  |  | 
[Hyp]GQ[dD]GLA [Example 64] | 91.62 | 86.18 | 48.37 | 96.19 |  |  |  | 
QEGLAG [Example 70] | 90.84 | 88.52 | 85.77 | 92.41 |  |  |  | 
Hyp-Gly-Gln-Asp-Ala ([Hyp]GQDA) [Example 33] | 96.68 | 89.94 | 86.76 | 99.46 |  |  |  | 
Hyp-Gly-Gln-Asp-Aib-Leu-Ala ([Hyp]GQD[Aib]LA) [Example 83] | 95.35 | 94.70 | 94.00 | 95.42 |  |  |  | 
Hyp-Gly-Gln-Asp-Gly-Val-Ala ([Hyp]GQDGVA) [Example 72] | 95.91 | 90.84 | 82.07 | 97.08 |  |  |  | 
Hyp-Gly-Gln-Leu-Leu-Leu-Ala ([Hyp]GQLLLA) [Example 96] | 97.14 | 96.64 | 96.02 | 98.07 |  |  |  | 
Hyp-Gly-Gln-Ala-Gly ([Hyp]GQAG) [Example 13] | 98.39 | 98.04 | 97.64 | 98.51 |  |  |  | 
QDGLAGPK [Example 16] | 47.33 | 16.48 | 10.78 | 80.41 |  |  |  | 
Hyp-Gly-Gln-Asp-Val-Leu [Example 22] ([Hyp]GQDVL) | 85.47 | 83.10 | 82.67 | 88.14 |  |  |  | 

Substance | Day 1 content (%) [1] [%] | Day 3 content (%) [1] [%] | Day 7 content (%) [1] [%] | Initial content (%) [1] [%] | IL-1β level increased by LPS ([2]; 10 nM peptide) | IL-1β level increased by LPS ([2]; 1 μM peptide) | IL-1β level increased by LPS ([2]; 10 μM peptide) | anti-inflammatory effect by regulating the secretion of IL-1β ([2]; summary, concentration not given)
4,4-dimethyl Pro-Gly-Gln-Asp-Gly-Leu ([Pro(4,4-Me2)]GQDGL) [Example 56] | 84.52 | 79.98 | 51.41 | 90.94 |  |  |  | 
Hyp-Gly-Gln-His-Gly-Leu ([Hyp]GQHGL) [Example 82] | 92.51 | 85.09 | 79.04 | 97.54 |  |  |  | 
[dHyp]GQDG [Example 40] | 81.96 | 70.04 | 51.11 | 89.95 |  |  |  | 
Hyp-Gly-Gln-Asp (isopropyl ester)-Gly (isopropyl ester) [Example 110] | 85.18 | 72.44 | 91.84 | 98.00 |  |  |  | 
Hyp-Gly-Gln-Glu-Gly-Leu ([Hyp]GQEGL) [Example 68] | 98.25 | 97.51 | 96.93 | 98.71 |  |  |  | 
Hyp-Gly-Gln-Asp (isopropyl ester)-Gly ([Hyp]GQD(OiPr)G) [Example 115] | 88.57 | 82.00 | 71.64 | 92.71 |  |  |  | 
Hyp-Gly-Gln-Leu-Leu-Leu ([Hyp]GQLLL) [Example 98] | 99.07 | 98.86 | 98.74 | 99.03 |  |  |  | 
Hyp-Gly-Gln-Aib-Gly-Leu ([Hyp]GQ[Aib]GL) [Example 84] | 97.91 | 97.29 | 96.49 | 97.78 |  |  |  | 
[Hyp]G[dQ]DGLA [Example 63] | 88.74 | 81.41 | 64.20 | 94.37 |  |  |  | 
Hyp-Gly-Gln-Ala-Gly-Leu-Ala ([Hyp]GQAGLA) [Example 14] | 96.58 | 96.07 | 95.55 | 97.13 |  |  |  | 
Hyp-Gly-Gln-Leu-Val-Leu-Ala ([Hyp]GQLVLA) [Example 97] | 95.01 | 94.31 | 94.08 | 97.08 |  |  |  | 
Hyp-Gly-Gln-Asu-Gly-Leu ([Hyp]GQ[Asu′]GL) [Example 101] | 86.61 | 86.38 | 83.40 | 88.72 |  |  |  | 
Hyp-Gly-Gln-Glu-Leu-Leu ([Hyp]GQELL) [Example 88] | 98.94 | 98.07 | 97.37 | 99.23 |  |  |  | 
Hyp-Gly-Gln-Asp-Val-Leu-Ala-Gly ([Hyp]GQDVLAG) [Example 24] | 96.14 | 95.71 | 95.13 | 96.57 |  |  |  | 
Hyp-Gly-Gln-Asp-Gly-Leu-Ala (isopropyl ester) ([Hyp]GQDGLA-OiPr) [Example 108] | 67.07 | 62.81 | 59.24 | 79.49 |  |  |  | 
